Test results: the supplement of paper PMC9170038

Tested on: MS2 coat protein
Test: apparent KD of MS2 coat protein; higher = weaker reporter binding
Conditions: Eterna round: R107
Outline: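 Designed RNA switches were made by on-chip transcription from Illumina sequencing clusters and then titrated with SNAP-549-labelled MS2 coat protein. Twofold steps ran from 0.7 or 1.5 nM to 3 µM, each lasting 0.8–1.5 h early and 10–20 min late, in 100 mM Tris-HCl pH 7.5, 80 mM KCl, 4 mM MgCl2, without or with constant ligand. Apparent KD is the per-design median of normalised cluster binding-curve fits.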

[1] = input ligand: theophylline 20 uM
[2] = input ligand: tryptophan 2.4 mM
[3] = input ligand: theophylline 2 mM

## CAGAGCUACCGGGAUACCAGAAUUGGUAUUCCUAUAUUUCUUACAUGAGGAUCACCCAUGUUCCCUUGGCAGCUUGGUAGCUCUG [ETHB #9]
Input ligand: arginine 13.2 mM
  apparent KD of MS2 coat protein: 45.1 nM
[1]
  apparent KD of MS2 coat protein: 87.6 nM
[2]
  apparent KD of MS2 coat protein: 68.8 nM

## CGGACAUGAGGAUCACCCAUGUACACUGAAGGAGCGUCGAGAACGACAGGUAGGUCGCAGGCUAAGGAAGGUGAUGCUCAAGAAG [Exclusion Arginine A GF5]
Input ligand: arginine 13.2 mM
  apparent KD of MS2 coat protein: 37.8 nM
Input ligand: none
  apparent KD of MS2 coat protein: 36.5 nM
[1]
  apparent KD of MS2 coat protein: 47.3 nM
[3]
  apparent KD of MS2 coat protein: 41.1 nM
[2]
  apparent KD of MS2 coat protein: 23.6 nM

## UCAUUUGAGUGAGAUGUAAGGUAUCAUGAUACCAGUAGAUAAUUAUACCCUUGGCAGCAUGACAUGAGGAUCACCCAUGUACAUG [Ad]
Input ligand: arginine 13.2 mM
  apparent KD of MS2 coat protein: 9.28 nM
[1]
  apparent KD of MS2 coat protein: 11.1 nM
[2]
  apparent KD of MS2 coat protein: 12.3 nM

## ACGUCGCAUAGGAAAACUAUGUGACGAAAUCGAGGACCGGUACGGCCGCCACUCGUCCUCAACAUGAGGAUCACCCAUGUAAUAA [Mat - Exclusion - Trytophan A - D7]
Input ligand: arginine 13.2 mM
  apparent KD of MS2 coat protein: 19.3 nM
[1]
  apparent KD of MS2 coat protein: 23.3 nM
[3]
  apparent KD of MS2 coat protein: 22.3 nM

## ACAUGAGGAUCACCCAUGUCUGCCACUGAUACCAGCGGAAGCCCACGCCCUUGGCAGCAGAACAUGAGGAUCACCCAUGUAGGCU [Same State Theophylline A GF28]
Input ligand: arginine 13.2 mM
  apparent KD of MS2 coat protein: 55.8 nM
[1]
  apparent KD of MS2 coat protein: 186 nM
[2]
  apparent KD of MS2 coat protein: 201 nM

## UUGGUACAUGAGGAUCACCCAUGUACUGAAGGAGCGGGACGAAUCUCAGGUAGGUCGCAGACAUGAGGAUCACCCAUGUAUUGGU [Exclusion Arginine A GF 16]
Input ligand: arginine 13.2 mM
  apparent KD of MS2 coat protein: 18.9 nM
Input ligand: none
  apparent KD of MS2 coat protein: 13 nM
[1]
  apparent KD of MS2 coat protein: 16.4 nM
[3]
  apparent KD of MS2 coat protein: 19 nM
[2]
  apparent KD of MS2 coat protein: 16.5 nM

## AAAACAUGAGGAUCACCACAUGACAUGAGGCGAGGACCGGUACGGCCGCCACUCGACAUACAUGAGGAUCACCCAUGUUUGUUGU [Exclusion Tryptophan A 4]
Input ligand: arginine 13.2 mM
  apparent KD of MS2 coat protein: 40.7 nM
[1]
  apparent KD of MS2 coat protein: 274 nM
[3]
  apparent KD of MS2 coat protein: 460 nM

## AAUCUGUCGGGUGAUACCAGCCUCGGCGCAUCUCACGCUGAACAUGAGGAUCACCCAUGUGGCCCUUGGCAGCACAUGACAAAUC [Tivece]
Input ligand: arginine 13.2 mM
  apparent KD of MS2 coat protein: 202 nM
[1]
  apparent KD of MS2 coat protein: 709 nM
[2]
  apparent KD of MS2 coat protein: 620 nM

## AACGUAUACAGAAGGAGCGUGAAUUAUAUUACUCAUUCAUAUACAUGAGGAUCACCCAUGUCACAGGUAGGUCGCUGUAUUCGUA [JR_ExcArginiB_Sub020]
Input ligand: arginine 13.2 mM
  apparent KD of MS2 coat protein: 55.9 nM
Input ligand: none
  apparent KD of MS2 coat protein: 82.2 nM
[1]
  apparent KD of MS2 coat protein: 92 nM
[3]
  apparent KD of MS2 coat protein: 86.9 nM
[2]
  apparent KD of MS2 coat protein: 65.4 nM

## AAAAUCCUACUUGAGGAUCACCCAGGUGAAGGAGCGCCCGAAAGGGCAGGUAGGUCGCACCUGAGGAUCACCCUGGUAAACCUAA [ArgEX 8 #DoubleMS2 #OpenEnded]
Input ligand: arginine 13.2 mM
  apparent KD of MS2 coat protein: 79.1 nM
Input ligand: none
  apparent KD of MS2 coat protein: 140 nM
[1]
  apparent KD of MS2 coat protein: 135 nM
[3]
  apparent KD of MS2 coat protein: 185 nM
[2]
  apparent KD of MS2 coat protein: 152 nM

## AAUAAUAUCCUCAUGUGAGUCGUACCGUAACGAGGACCGGUACGGCCGCCACUCGAACAUGAGGAUCACCCAUGUAGGUACGACA [M'-T'-T-MS2-T'' - Design 8]
Input ligand: arginine 13.2 mM
  apparent KD of MS2 coat protein: 42.1 nM
[1]
  apparent KD of MS2 coat protein: 182 nM
[3]
  apparent KD of MS2 coat protein: 238 nM

## UAAUACCAGGUCAACGUACCAGGUGAUCAACGAGGACCGGUACGGCCGCCACUCGAAACAUGAGGAUCACCCAUGUAAGACCUGG [|T'-M'-Trp-Ms2|_Design 2_ML2]
Input ligand: arginine 13.2 mM
  apparent KD of MS2 coat protein: 20.9 nM
Input ligand: none
  apparent KD of MS2 coat protein: 134 nM
[1]
  apparent KD of MS2 coat protein: 185 nM
[3]
  apparent KD of MS2 coat protein: 141 nM
[2]
  apparent KD of MS2 coat protein: 61.3 nM

## UAACAUGAGGAUCACCCAUGUAUAGUCGAUACCAGCUCUGUCUAGAGCCCUUGGCAGCGACACUGGUAUCCAUGGGUGUGGAUAC [(Ms2)-(Theo)-(T)'-(M)'-(M)'']
Input ligand: arginine 13.2 mM
  apparent KD of MS2 coat protein: 20.1 nM
[1]
  apparent KD of MS2 coat protein: 98.4 nM
[2]
  apparent KD of MS2 coat protein: 103 nM

## CUACAUUUGUAGAAACCGGUCAACAAUAAUCGAGGACCGGUACGGCCGCCACUCGUAUAAUUUAAUACAUGAGGAUCACCCAUGU [Tryptophan A 1]
Input ligand: arginine 13.2 mM
  apparent KD of MS2 coat protein: 13.7 nM
[1]
  apparent KD of MS2 coat protein: 19.4 nM
[3]
  apparent KD of MS2 coat protein: 19.4 nM

## UCGGGCAGAGCGGCCGCCACUGUUUGGCGUGCGGAUGACGGAACAUGAGGAUCACCCAUGUUGUUUAGGACCGGGCUUGCGGCGU [ipimullin]
Input ligand: arginine 13.2 mM
  apparent KD of MS2 coat protein: 12.1 nM
Input ligand: none
  apparent KD of MS2 coat protein: 12.7 nM
[1]
  apparent KD of MS2 coat protein: 16.7 nM
[3]
  apparent KD of MS2 coat protein: 14 nM
[2]
  apparent KD of MS2 coat protein: 12.1 nM

## UUGUUGUUUGGAAGGAGCGUGUAAGAUUAAGAACAUGAGGAUCACCCAUGUUUUAAGGGAGCACAGGUAGGUCGCCGGGUGGUGG [11.S]
Input ligand: arginine 13.2 mM
  apparent KD of MS2 coat protein: 14.4 nM
Input ligand: none
  apparent KD of MS2 coat protein: 12.3 nM
[1]
  apparent KD of MS2 coat protein: 31.5 nM
[3]
  apparent KD of MS2 coat protein: 15.9 nM
[2]
  apparent KD of MS2 coat protein: 21.5 nM
